T1: B3GNT2 (Homo sapiens, UniProt Q9NY97)
T1 construct: The respective ORFs of candidate genes [CD274 (NM_014143), MCL1 (NM_021960), JUNB (NM_002229), and B3GNT2 (NM_006577)] were synthesized; expressed in transfected cells; host or cells: A375 melanoma cells (lentiviral ORF overexpression)
T1 sequence (Q9NY97 1-397): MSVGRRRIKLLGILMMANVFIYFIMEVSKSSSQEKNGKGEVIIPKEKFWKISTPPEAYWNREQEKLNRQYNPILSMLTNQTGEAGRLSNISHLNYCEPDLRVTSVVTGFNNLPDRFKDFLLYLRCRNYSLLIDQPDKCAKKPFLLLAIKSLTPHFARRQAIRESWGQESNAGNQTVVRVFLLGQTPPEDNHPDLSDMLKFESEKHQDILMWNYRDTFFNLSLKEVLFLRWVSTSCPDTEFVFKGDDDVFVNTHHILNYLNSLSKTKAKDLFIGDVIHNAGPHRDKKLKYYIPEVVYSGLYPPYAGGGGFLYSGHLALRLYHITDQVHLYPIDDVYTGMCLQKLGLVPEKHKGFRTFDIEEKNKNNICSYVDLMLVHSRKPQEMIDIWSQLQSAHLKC


Molecular target: T1, B3GNT2
Assay: Co-IP of FLAG-tagged B3GNT2 followed by mass spectrometry
Assay type: cell-based
Set-up: C-term IgG / C-term flag: unit not given here
Details: mass spectrometry count, unit not given; for C-term flag / N-term FLAG: Co-IP with FLAG antibody; for C-term flag / C-term IgG: C-terminally FLAG-tagged B3GNT2; for N-term FLAG / N-term IgG: N-terminally FLAG-tagged B3GNT2; for C-term IgG / N-term IgG: Co-IP with IgG control antibody
Summary of the method: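 FLAG-tagged B3GNT2 immunoprecipitated from cell lysate (HEPES, 1% Triton X-100, 150 mM NaCl) with anti-FLAG versus […], overnight at 4° C, then captured on Protein A/G magnetic beads for 4 h. Two biological replicates per condition. Peptides fractionated and analyzed by nano-LC on an Orbitrap Elite in data-dependent mode.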

Molecule	C-term flag	N-term FLAG	C-term IgG	N-term IgG
SLC25A3 (protein) AVEEQYSCDYGSGRFFILCGLGGIISCGTTHTALVPLDLVKCRMQVDPQKYKGIFNGFSVTLKEDGVRGLAKGWAPTFLGYSMQGLCKFGFYEVFKVLYSNMLGEENTYLWRTSLYLAASASAEFFADIALAPMEAAKVRIQTQPGYANTLRDAAPKMYKEEGLKAFYKGVAPLWMRQIPYTMMKFACFERTVEALYKFVVPKPRSECSKPEQLVVTFVAGYIAGVFCAIVSHPADSVVSVLNKEKGSSASLVLKRLGFKGVWKGLFARIIMIGTLTALQWFIYDSVKVYFRLPRPPPPEMPESLKKKLGLTQ	9	4	0	0
CASP14 (protein) MSNPRSLEEEKYDMSGARLALILCVTKAREGSEEDLDALEHMFRQLRFESTMKRDPTAEQFQEELEKFQQAIDSREDPVSCAFVVLMAHGREGFLKGEDGEMVKLENLFEALNNKNCQALRAKPKVYIIQACRGEQRDPGETVGGDEIVMVIKDSPQTIPTYTDALHVYSTVEGYIAYRHDQKGSCFIQTLVDVFTKRKGHILELLTEVTRRMAEAELVQEGKARKTNPEIQSTLRKRLYLQ	9	8	4	3
ERLIN1 (protein) MNMTQARVLVAAVVGLVAVLLYASIHKIEEGHLAVYYRGGALLTSPSGPGYHIMLPFITTFRSVQTTLQTDEVKNVPCGTSGGVMIYIDRIEVVNMLAPYAVFDIVRNYTADYDKTLIFNKIHHELNQFCSAHTLQEVYIELFDQIDENLKQALQKDLNLMAPGLTIQAVRVTKPKIPEAIRRNFELMEAEKTKLLIAAQKQKVVEKEAETERKKAVIEAEKIAQVAKIRFQQKVMEKETEKRISEIEDAAFLAREKAKADAEYYAAHKYATSNKHKLTPEYLELKKYQAIASNSKIYFGSNIPNMFVDSSCALKYSDIRTGRESSLPSKEALEPSGENVIQNKESTG	9	11	0	0
HSPH1 (protein) SVVGLDVGSQSCYIAVARAGGIETIANEFSDRCTPSVISFGSKNRTIGVAAKNQQITHANNTVSNFKRFHGRAFNDPFIQKEKENLSYDLVPLKNGGVGIKVMYMGEEHLFSVEQITAMLLTKLKETAENSLKKPVTDCVISVPSFFTDAERRSVLDAAQIVGLNCLRLMNDMTAVALNYGIYKQDLPSLDEKPRIVVFVDMGHSAFQVSACAFNKGKLKVLGTAFDPFLGGKNFDEKLVEHFCAEFKTKYKLDAKSKIRALLRLYQECEKLKKLMSSNSTDLPLNIECFMNDKDVSGKMNRSQFEELCAELLQKIEVPLYSLLEQTHLKVEDVSAVEIVGGATRIPAVKERIAKFFGKDISTTLNADEAVARGCALQCAILSPAFKVREFSVTDAVPFPISLIWNHDSEDTEGVHEVFSRNHAAPFSKVLTFLRRGPFELEAFYSDPQGVPYPEAKIGRFVVQNVSAQKDGEKSRVKVKVRVNTHGIFTISTASMVEKVPTEENEMSSEADMECLNQRPPENPDTDANEKKVDQPPEAKKPKIKVVNVELPIEANLVWQLGKDLLNMYIETEGKMIMQDKLEKERNDAKNAVEEYVYEFRDKLCGPYEKFICEQDHQNFLRLLTETEDWLYEEGEDQAKQAYVDKLEELMKIGTPVKVRFQEAEERPKMFEELGQRLQHYAKIAADFRNKDEKYNHIDESEMKKVEKSVNEVMEWMNNVMNAQAKKSLDQDPVVRAQEIKTKIKELNNTCEPVVTQPKPKIESPKLERTPNGPNIDKKEEDLEDKNNFGAEPPHQNGECYPNEKNSVNMDLD	7	8	0	0
SERPINE2 (protein) SHFNPLSLEELGSNTGIQVFNQIVKSRPHDNIVISPHGIASVLGMLQLGADGRTKKQLAMVMRYGVNGVGKILKKINKAIVSKKNKDIVTVANAVFVKNASEIEVPFVTRNKDVFQCEVRNVNFEDPASACDSINAWVKNETRDMIDNLLSPDLIDGVLTRLVLVNAVYFKGLWKSRFQPENTKKRTFVAADGKSYQVPMLAQLSVFRCGSTSAPNDLWYNFIELPYHGESISMLIALPTESSTPLSAIIPHISTKTIDSWMSIMVPKRVQVILPKFTAVAQTDLKEPLKVLGITDMFDSSKANFAKITTGSENLHVSHILQKAKIEVSEDGTKASAATTAILIARSSPPWFIVDRPFLFFIRHNPTGAVLFMGQINKP	11	4	0	0
UQCRC2 (protein) SLKVAPKVKATAAPAGAPPQPQDLEFTKLPNGLVIASLENYSPVSRIGLFIKAGSRYEDFSNLGTTHLLRLTSSLTTKGASSFKITRGIEAVGGKLSVTATRENMAYTVECLRGDVDILMEFLLNVTTAPEFRRWEVADLQPQLKIDKAVAFQNPQTHVIENLHAAAYRNALANPLYCPDYRIGKVTSEELHYFVQNHFTSARMALIGLGVSHPVLKQVAEQFLNMRGGLGLSGAKANYRGGEIREQNGDSLVHAAFVAESAVAGSAEANAFSVLQHVLGAGPHVKRGSNTTSHLHQAVAKATQQPFDVSAFNASYSDSGLFGIYTISQATAAGDVIKAAYNQVKTIAQGNLSNTDVQAAKNKLKAGYLMSVESSECFLEEVGSQALVAGSYMPPSTVLQQIDSVANADIINAAKKFVSGQKSMAASGNLGHTPFVDEL	4	13	0	0

The next lines start with the values.

C-term flag	N-term FLAG	C-term IgG	N-term IgG	Molecule
0	2	0	0	SRSF7 (protein) MSRYGRYGGETKVYVGNLGTGAGKGELERAFSYYGPLRTVWIARNPPGFAFVEFEDPRDAEDAVRGLDGKVICGSRVRVELSTGMPRRSRFDRPPARRPFDPNDRCYECGEKGHYAYDCHRYSRRRRSRSRSRSHSRSRGRRYSRSRSRSRGRRSRSASPRRSRSISLRRSRSASLRRSRSGSIKGSRYFQSPSRSRSRSRSISRPRSSRSKSRSPSPKRSRSPSGSPRRSASPERMD
11	6	0	0	CANX (protein) HDGHDDDVIDIEDDLDDVIEEVEDSKPDTTAPPSSPKVTYKAPVPTGEVYFADSFDRGTLSGWILSKAKKDDTDDEIAKYDGKWEVEEMKESKLPGDKGLVLMSRAKHHAISAKLNKPFLFDTKPLIVQYEVNFQNGIECGGAYVKLLSKTPELNLDQFHDKTPYTIMFGPDKCGEDYKLHFIFRHKNPKTGIYEEKHAKRPDADLKTYFTDKKTHLYTLILNPDNSFEILVDQSVVNSGNLLNDMTPPVNPSREIEDPEDRKPEDWDERPKIPDPEAVKPDDWDEDAPAKIPDEEATKPEGWLDDEPEYVPDPDAEKPEDWDEDMDGEWEAPQIANPRCESAPGCGVWQRPVIDNPNYKGKWKPPMIDNPSYQGIWKPRKIPNPDFFEDLEPFRMTPFSAIGLELWSMTSDIFFDNFIICADRRIVDDWANDGWGLKKAADGAAEPGVVGQMIEAAEERPWLWVVYILTVALPVFLVILFCCSGKKQTSGMEYKKTDAPQPDVKEEEEEKEEEKDKGDEEEEGEEKLEEKQKSDAEEDGGTVSQEEEDRKPKAEEDEILNRSPRNRKPRRE
0	2	0	0	PRR4 (protein) QSTDNDVNYEDFTFTIPDVEDSSQRPDQGPQRPPPEGLLPRPPGDSGNQDDGPQQRPPKPGGHHRHPPPPPFQNQQRPPRRGHRQLSLPRFPSVSLQEASSFFQRDRPARHPQEQPLW
14	2	0	0	CKAP4 (protein) MPSAKQRGSKGGHGAASPSEKGAHPSGGADDVAKKPPPAPQQPPPPPAPHPQQHPQQHPQNQAHGKGGHRGGGGGGGKSSSSSSASAAAAAAAASSSASCSRRLGRALNFLFYLALVAAAAFSGWCVHHVLEEVQQVRRSHQDFSRQREELGQGLQGVEQKVQSLQATFGTFESILRSSQHKQDLTEKAVKQGESEVSRISEVLQKLQNEILKDLSDGIHVVKDARERDFTSLENTVEERLTELTKSINDNIAIFTEVQKRSQKEINDMKAKVASLEESEGNKQDLKALKEAVKEIQTSAKSREWDMEALRSTLQTMESDIYTEVRELVSLKQEQQAFKEAADTERLALQALTEKLLRSEESVSRLPEEIRRLEEELRQLKSDSHGPKEDGGFRHSEAFEALQQKSQGLDSRLQHVEDGVLSMQVASARQTESLESLLSKSQEHEQRLAALQGRLEGLGSSEADQDGLASTVRSLGETQLVLYGDVEELKRSVGELPSTVESLQKVQEQVHTLLSQDQAQAARLPPQDFLDRLSSLDNLKASVSQVEADLKMLRTAVDSLVAYSVKIETNENNLESAKGLLDDLRNDLDRLFVKVEKIHEKV

Source: US20240261333A1, “NOVEL TARGETS FOR ENHANCING ANTI-TUMOR IMMUNITY” (THE BROAD INSTITUTE, INC., priority 2021, published 2024)
